Source: publication PMC2783235
Values belong to the substance of their own block, whether it stands above or below them.

Key:
[1] = molecular target: A281C (single-Cys mutant of FT-HT-Xa) (S. cerevisiae) (UniProt D6VTK4); assay: cross-linking
[2] = molecular target: A281C (single-Cys mutant of FT-HT-Xa) (S. cerevisiae) (UniProt D6VTK4); assay: cross-linking; remark: listed apart in the source
[3] = molecular target: A281C (single-Cys mutant of FT-HT-Xa) (S. cerevisiae) (UniProt D6VTK4); assay: SDS-PAGE and western blot of membranes
[4] = molecular target: A281C (single-Cys mutant of FT-HT-Xa) (S. cerevisiae) (UniProt D6VTK4); assay: cross-linking; remark: listed apart in the source
[5] = molecular target: A285C (single-Cys mutant of FT-HT-Xa) (S. cerevisiae) (UniProt D6VTK4); assay: cross-linking
[6] = molecular target: A285C (single-Cys mutant of FT-HT-Xa) (S. cerevisiae) (UniProt D6VTK4); assay: cross-linking; remark: listed apart in the source
[7] = molecular target: A285C (single-Cys mutant of FT-HT-Xa) (S. cerevisiae) (UniProt D6VTK4); assay: SDS-PAGE and western blot of membranes
[8] = molecular target: A285C (single-Cys mutant of FT-HT-Xa) (S. cerevisiae) (UniProt D6VTK4); assay: cross-linking; remark: listed apart in the source
[9] = molecular target: L283C (single-Cys mutant of FT-HT-Xa) (S. cerevisiae) (UniProt D6VTK4); assay: cross-linking
[10] = molecular target: L283C (single-Cys mutant of FT-HT-Xa) (S. cerevisiae) (UniProt D6VTK4); assay: cross-linking; remark: listed apart in the source
[11] = molecular target: L283C (single-Cys mutant of FT-HT-Xa) (S. cerevisiae) (UniProt D6VTK4); assay: SDS-PAGE and western blot of membranes
[12] = molecular target: L283C (single-Cys mutant of FT-HT-Xa) (S. cerevisiae) (UniProt D6VTK4); assay: cross-linking; remark: listed apart in the source
[13] = molecular target: L284C (single-Cys mutant of FT-HT-Xa) (S. cerevisiae) (UniProt D6VTK4); assay: cross-linking
[14] = molecular target: L284C (single-Cys mutant of FT-HT-Xa) (S. cerevisiae) (UniProt D6VTK4); assay: cross-linking; remark: listed apart in the source
[15] = molecular target: L284C (single-Cys mutant of FT-HT-Xa) (S. cerevisiae) (UniProt D6VTK4); assay: SDS-PAGE and western blot of membranes
[16] = molecular target: L284C (single-Cys mutant of FT-HT-Xa) (S. cerevisiae) (UniProt D6VTK4); assay: cross-linking; remark: listed apart in the source
[17] = molecular target: L287C (single-Cys mutant of FT-HT-Xa) (S. cerevisiae) (UniProt D6VTK4); assay: cross-linking
[18] = molecular target: L287C (single-Cys mutant of FT-HT-Xa) (S. cerevisiae) (UniProt D6VTK4); assay: cross-linking; remark: listed apart in the source
[19] = molecular target: L287C (single-Cys mutant of FT-HT-Xa) (S. cerevisiae) (UniProt D6VTK4); assay: SDS-PAGE and western blot of membranes
[20] = molecular target: L287C (single-Cys mutant of FT-HT-Xa) (S. cerevisiae) (UniProt D6VTK4); assay: cross-linking; remark: listed apart in the source
[21] = molecular target: L289C (single-Cys mutant of FT-HT-Xa) (S. cerevisiae) (UniProt D6VTK4); assay: cross-linking
[22] = molecular target: L289C (single-Cys mutant of FT-HT-Xa) (S. cerevisiae) (UniProt D6VTK4); assay: cross-linking; remark: listed apart in the source
[23] = molecular target: L289C (single-Cys mutant of FT-HT-Xa) (S. cerevisiae) (UniProt D6VTK4); assay: SDS-PAGE and western blot of membranes
[24] = molecular target: L289C (single-Cys mutant of FT-HT-Xa) (S. cerevisiae) (UniProt D6VTK4); assay: cross-linking; remark: listed apart in the source
[25] = molecular target: S288C (single-Cys mutant of FT-HT-Xa) (S. cerevisiae) (UniProt D6VTK4); assay: cross-linking
[26] = molecular target: S288C (single-Cys mutant of FT-HT-Xa) (S. cerevisiae) (UniProt D6VTK4); assay: cross-linking; remark: listed apart in the source
[27] = molecular target: S288C (single-Cys mutant of FT-HT-Xa) (S. cerevisiae) (UniProt D6VTK4); assay: SDS-PAGE and western blot of membranes
[28] = molecular target: S288C (single-Cys mutant of FT-HT-Xa) (S. cerevisiae) (UniProt D6VTK4); assay: cross-linking; remark: listed apart in the source
[29] = molecular target: T282C (single-Cys mutant of FT-HT-Xa) (S. cerevisiae) (UniProt D6VTK4); assay: cross-linking
[30] = molecular target: T282C (single-Cys mutant of FT-HT-Xa) (S. cerevisiae) (UniProt D6VTK4); assay: cross-linking; remark: listed apart in the source
[31] = molecular target: T282C (single-Cys mutant of FT-HT-Xa) (S. cerevisiae) (UniProt D6VTK4); assay: SDS-PAGE and western blot of membranes
[32] = molecular target: T282C (single-Cys mutant of FT-HT-Xa) (S. cerevisiae) (UniProt D6VTK4); assay: cross-linking; remark: listed apart in the source
[33] = molecular target: V280C (single-Cys mutant of FT-HT-Xa) (S. cerevisiae) (UniProt D6VTK4); assay: cross-linking
[34] = molecular target: V280C (single-Cys mutant of FT-HT-Xa) (S. cerevisiae) (UniProt D6VTK4); assay: cross-linking; remark: listed apart in the source
[35] = molecular target: V280C (single-Cys mutant of FT-HT-Xa) (S. cerevisiae) (UniProt D6VTK4); assay: SDS-PAGE and western blot of membranes
[36] = molecular target: V280C (single-Cys mutant of FT-HT-Xa) (S. cerevisiae) (UniProt D6VTK4); assay: cross-linking; remark: listed apart in the source
[37] = molecular target: V286C (single-Cys mutant of FT-HT-Xa) (S. cerevisiae) (UniProt D6VTK4); assay: cross-linking
[38] = molecular target: V286C (single-Cys mutant of FT-HT-Xa) (S. cerevisiae) (UniProt D6VTK4); assay: cross-linking; remark: listed apart in the source
[39] = molecular target: V286C (single-Cys mutant of FT-HT-Xa) (S. cerevisiae) (UniProt D6VTK4); assay: SDS-PAGE and western blot of membranes
[40] = molecular target: V286C (single-Cys mutant of FT-HT-Xa) (S. cerevisiae) (UniProt D6VTK4); assay: cross-linking; remark: listed apart in the source

Substance: A281C (single-Cys mutant of FT-HT-Xa) (from UniProt D6VTK4 1-431) (receptor)
percent dimer [1]: 14.3%
percent dimer [2]: 11.3%
percent dimer [3]: 16.8%
percent dimer [4]: 11.9%

Substance: A285C (single-Cys mutant of FT-HT-Xa) (from UniProt D6VTK4 1-431) (receptor)
percent dimer [5]: 16.5%
percent dimer [6]: 17.7%
percent dimer [7]: 16.5%
percent dimer [8]: 53.5%

Substance: L284C (single-Cys mutant of FT-HT-Xa) (from UniProt D6VTK4 1-431) (receptor)
percent dimer [13]: 17.7%
percent dimer [14]: 15.3%
percent dimer [15]: 15.2%
percent dimer [16]: 12%

Substance: L289C (single-Cys mutant of FT-HT-Xa) (from UniProt D6VTK4 1-431) (receptor)
percent dimer [21]: 50.2%
percent dimer [22]: 40.9%
percent dimer [23]: 26.8%
percent dimer [24]: 61%

Substance: V280C (single-Cys mutant of FT-HT-Xa) (from UniProt D6VTK4 1-431) (receptor)
percent dimer [33]: 16.3%
percent dimer [34]: 12.4%
percent dimer [35]: 15.3%
percent dimer [36]: 14.7%

Now from value to substance:

percent dimer [9]: 13.3%
percent dimer [10]: 10.7%
percent dimer [11]: 16.6%
percent dimer [12]: 15.7%
Substance: L283C (single-Cys mutant of FT-HT-Xa) (from UniProt D6VTK4 1-431) (receptor)

percent dimer [17]: 11.3%
percent dimer [18]: 16%
percent dimer [19]: 16%
percent dimer [20]: 14.3%
Substance: L287C (single-Cys mutant of FT-HT-Xa) (from UniProt D6VTK4 1-431) (receptor)

percent dimer [25]: 11.5%
percent dimer [26]: 12.6%
percent dimer [27]: 14.7%
percent dimer [28]: 14.7%
Substance: S288C (single-Cys mutant of FT-HT-Xa) (from UniProt D6VTK4 1-431) (receptor)

percent dimer [29]: 12%
percent dimer [30]: 11.7%
percent dimer [31]: 11.7%
percent dimer [32]: 15.4%
Substance: T282C (single-Cys mutant of FT-HT-Xa) (from UniProt D6VTK4 1-431) (receptor)

percent dimer [37]: 13.2%
percent dimer [38]: 15.9%
percent dimer [39]: 15.6%
percent dimer [40]: 17%
Substance: V286C (single-Cys mutant of FT-HT-Xa) (from UniProt D6VTK4 1-431) (receptor)
